{
  "source": "patent US12466859B2",
  "about": "“Desmoglein 2 (DSG2) binding proteins and uses therefor” (UNIVERSITY OF WASHINGTON THROUGH ITS CENTER FOR …, priority 2013, dated 2025)",
  "origin": "cited, not measured here",
  "molecules": {"B1": {"name": "Ad3 knob monomer: Recombinant (trimeric) fiber knob with two shaft motifs, but without the dimerization domain (protein)", "chain": "NKLCSKLGNGLTFDSSNSIALKNNTLWTGPKPEANCIIEYGKQNPDSKLTLILVKNGGIVNGYVTLMGASDYVNTLFKNKNVSINVELYFDATGHILPDSSSLKTDLELKYKQTADFSARGFMPSTTAYPFVLPNAGTHNENYIFGQCYYKASDGALFPLEVTVMLNKRLPDSRTSYVMTFLWSLNAGLAPETTQATLITSPFTFSYIREDD", "modifications": "left off: small tags and cut ends", "notes": "Recombinant (trimeric) fiber knob with two shaft motifs, but without the dimerization domain"}},
  "settings_in_all_cases": "previous studies (37, 41, 42); cited from earlier work",
  "key": {"[1]": {"test_system": "polarized colon cancer T84 cells"}, "DSG2": {"biological_target": "T1, DSG2 (Homo sapiens, UniProt Q14126)", "T1 construct": "Western blot using soluble recombinant DSG2 as a probe; purchased Leinco Technologies, Inc. (St. Louis, MO)", "T1 sequence (Q14126 50-609 limits assumed)": "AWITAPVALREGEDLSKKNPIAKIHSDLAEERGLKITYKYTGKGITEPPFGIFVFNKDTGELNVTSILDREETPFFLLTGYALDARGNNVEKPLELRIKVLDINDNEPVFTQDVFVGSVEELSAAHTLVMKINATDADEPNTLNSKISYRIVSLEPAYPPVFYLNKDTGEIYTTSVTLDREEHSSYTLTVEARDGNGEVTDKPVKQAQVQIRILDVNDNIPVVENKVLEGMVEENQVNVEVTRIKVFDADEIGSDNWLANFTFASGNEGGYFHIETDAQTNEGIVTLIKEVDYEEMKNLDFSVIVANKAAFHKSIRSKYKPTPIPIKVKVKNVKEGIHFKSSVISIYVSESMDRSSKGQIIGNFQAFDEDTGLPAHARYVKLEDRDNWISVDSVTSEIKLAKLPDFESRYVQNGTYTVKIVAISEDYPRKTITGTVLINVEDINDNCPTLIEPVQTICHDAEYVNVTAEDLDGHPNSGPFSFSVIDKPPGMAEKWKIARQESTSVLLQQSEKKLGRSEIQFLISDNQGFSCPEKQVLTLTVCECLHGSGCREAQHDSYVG"}, "Ad3-GFP virus": {"test_system": "Ad3-GFP virus"}},
  "data": [
    {"molecule": "B1", "values": [
      {"measurement": "Junction opening", "setting": "[1]", "value": "does not trigger junction opening"},
      {"measurement": "Affinity of binding to DSG2 relative to JO-1", "setting": "DSG2", "value": "orders of magnitude less than JO-1"},
      {"measurement": "Block of Ad3 infection", "setting": "Ad3-GFP virus", "value": "not able to block Ad3 infection"}
    ]}
  ]
}
